{
  "source": "patent US9284541B2",
  "about": "“Methods and compositions for protein labeling using lipoic acid ligases” (Massachusetts Institute of Technology, priority 2007, dated 2016)",
  "molecules": {"B1": {"name": "W37V: E. coli LplA single mutant W37V, coumarin ligase (protein)", "chain": "STLRLLISDSYDPWFNLAVEECIFRQMPATQRVLFLVRNADTVVIGRAQNPWKECNTRRMEEDNVRLARRSSGGGAVFHDLGNTCFTFMAGKPEYDKTISTSIVLNALNALGVSAEASGRNDLVVKTVEGDRKVSGSAYRETKDRGFHHGTLLLNADLSRLANYLNPDKKKLAAKGITSVRSRVTNLTELLPGITHEQVCEAITEAFFAHYGERVEAEIISPNKTPDLPNFAETFARQSSWEWNFGQAPAFSHLLDERFTWGGVELHFDVEKGHITRAQVFTDSLNPAPLEALAGRLQGCLYRADMLQQECEALLVDFPEQEKELRELSAWMAGAVR", "modifications": "E. coli"}},
  "key": {"LAP2 [1]": {"target": "T1, LAP2 (Escherichia coli, UniProt P32099, W38V)", "conditions": "cited from earlier work"}, "[2]": {"test_system": "FKBP-LAP1 and FRB-LplAW37V", "conditions": "FRB fusions, ID-PRIME labeling of FKBP-LAP1", "protocol": "Growth media was then removed and the cells were labeled by applying 20 μM coumarin-AM2 in serum-free DMEM at 37° C. for 10 minutes. Excess coumarin was washed out with three changes of fresh DMEM over 60 minutes at 37° C. Cells were imaged in DPBS. Confocal images were acquired at 60× magnification."}, "FKBP-LAP1": {"target": "FKBP-LAP1 (Escherichia coli, UniProt P32099, W38V)"}, "LAP2 [3]": {"target": "T1, LAP2", "conditions": "coumarin ligation"}, "[4]": {"test_system": "LAP peptide (sequence=GFEIDKVWYDLDA)", "conditions": "1 μM ligase, 200 μM LAP peptide, 500 μM resorufin-AM2, 30° C., 1 hour", "experimental": "These DNA fragments were cloned into expression vectors and expressed in E. coli cells. The ligase activity of the LplA mutants thus prepared in catalyzing formation of resorufin-LAP conjugate was tested as described below. 1 μM Lipoic acid ligase, 200 μM, LAP peptide (sequence=[…]), ligase, 500 μM resorufin-AM2, 2 mM ATP, and 5 mM magnesium acetate were mixed in an Eppendorf tube and incubated at 30° C. for 1 hour. Components in the mixture were analyzed by C18 HPLC and tandem ESI-MS, using 15%→40% acetonitrile linear gradient over 8 minutes containing 0.1% formic acid to resolve resorufin, LAP, and resorufin-LAP conjugate. A mixtures omitting ATP or the lipoic acid ligase was used as a negative control."}, "LAP-YFP fusion protein": {"test_system": "LAP-YFP fusion protein", "assay": "Orthogonal resorufin and 7-hydroxycoumarin labeling in living HEK 293T cells", "conditions": "5 μM resorufin-AM2 and 20 μM 7-hydrozycoumarin-AM2, 10 minutes", "protocol": "After being rinsed with DPBS or HBSS, the transfected cells were incubated with 5 μM resorufin-AM2 and 20 μM 7-hydrozycoumarin-AM2 at 37° C. for 10 minutes.\nThe cells were washed with the culture medium, cultured at 37° C. for 30 minutes, and observed under a fluorescent microscope."}},
  "data": [
    {"molecule": "B1", "values": [
      {"measurement": "reported kcat for coumarin ligation to LAP2", "setting": "LAP2 [1]", "result": 0.019, "unit": "s⁻¹"},
      {"measurement": "background versus expression level", "setting": "[2]", "result": "increased with expression level"},
      {"measurement": "catalytic rate slower than lipoic acid ligation", "setting": "FKBP-LAP1", "result": 22, "unit": "times"},
      {"measurement": "kcat for coumarin ligation to LAP1", "setting": "FKBP-LAP1; purified FKBP-LAP1", "result": "0.01 ± 0.001", "unit": "s⁻¹"},
      {"measurement": "Km", "setting": "FKBP-LAP1; read-out: Km of the enzyme for LAP1, coumarin probe, purified FKBP-LAP1", "result": "681 ± 168", "unit": "µM"},
      {"measurement": "Kcat for coumarin", "setting": "LAP2 [3]", "result": 0.019, "unit": "s⁻¹"},
      {"measurement": "Yield of resorufin-LAP conjugate", "setting": "[4]", "result": "<5", "unit": "%"},
      {"measurement": "substrate specificity in cells", "setting": "LAP-YFP fusion protein", "result": "only catalyzes conjugate of 7-hydroxycoumarin"}
    ]}
  ]
}
